Data from the DeepSol protein solubility set.

assay: soluble on expression in E. coli; label from the status in PepcDB or PDB records

Row | Sequence | soluble on expression in E. coli
1 | SLRLTQGLFRFPLAGLLCLSTAAFAESQLSVRVTPANAALKANIEAYVGSLGERDEAALQRFRRNAEAQAEKAAQALGYFQAQIDSEVKDGKPPKLTLKVVPGEPVRLRQVNIQVLGEAASLESFRLPSGKQLKPGAKLNQGVYEDAKRLIQNQASRYGFFQGRFSTQRLSIDPRAGIADIDLVYDSGQRYTFGKVSFDGDSIIEEELLRRMVPFKAGQPYDSELIAELNQNLQSSGYFEGVRVDAAPTQAQADGARQAIPVAVRLEARKPRTMGVGLGFSTDVGARARFNWTRHWVNAEGHSLGFESEISAPRQNVGAWYEIPLDPPLTDKLRFTSGYQFEDLVDTESKLLTLGGEWHSKRPDGWQRVVSLNWMREEYKLGDDSGLSSFLMPGIGYSLLETDNKVDPSHGYRLQFNVKGAKEGLLADADVLHVDAMAKGLTSFAGGHRLLGRLQVGGIATNDYKSIPPSLRFFAGGDQSVRGYDYRTLSPENSDGDKIGGRYMIAGSVEYQYPLAERWRLATFVDQGNAFNSLDFPSIKTGVGFGVRWVSPVGPLRLDLAHALDDDGGFRLHFSMGPEL | soluble
2 | MGHHHHHHSHMPFKLFKKLTISSVVTSATVNWATLASRTVFILPKRVLPYLRSVARLTRVVIAMDRYGGLLGGFLRAVPPVQKPLSLTDGNKFREGIMSEVGKYVSTLVDPRNMMLDSFHHLKHNKSLQGSFLVHAGTVSDQEVCGTPMFCYKDGLSNPEIDRLLTPISLTRLTVPNNENSDVFRIGNIIYSEDSGLFDIIPTLRTRLMERNLHEGLVFVGPLIKNINSSFVNKITTAIKGDTVLNESLSHGLVLKLPVEQFMDFETTNTFHYTGRLPMTHRSYIYYALGYVITADGTQSLLQKFFRTPIEGPEFTRLVRDYFAGEIRNFFLGDNDFGQGNFLMFGAVCRCGYFPEDSLLTRTRVSIKGGGLSLIEIPDFTVSRGPWQFI | not soluble
3 | DITVYNGQHKEAAQAVADAFTRATGIKVKLNSAKGDQLAGQIKEEGSRSPADVFYSEQIPALATLSAANLLEPLPASTINETRGKGVPVAAKKDWVALSGRSRVVVYDTRKLSEKDLEKSVLNYATPKWKNRIGYVPTSGAFLEQIVAIVKLKGEAAALKWLKGLKEYGKPYAKNSVALQAVENGEVDAALINNYYWHAFAREKGVQNVHTRLNFVRHRDPGALVTYSGAAVLKSSQNKDEAKKFVAFLAGKEGQRALTAVRAEYPLNPHVVSTFNLEPIAKLEAPQVSATTVSEKEHATRLLEQAGMK | soluble
4 | MSEPLIVGIRHHSPACARLVKSLIESQRPRYVLIEGPADFNDRVDELFLAHQLPVAIYSYCQYQDGAAPGRGAWTPFAEFSPEWQALQAARRIQAQTYFIDLPCWAQSEEEDDSPDTQDESQALLLRATRMDNSDTLWDHLFEDESQQTALPSALAHYFAQLRGDASGDALNRQREAFMARWIGWAMQQNNGDVLVVCGGWHAPALAKMWRECPQKINKPELPSLADAVTGCYLTPYSEKRLDVLAGYLSGMPAPVWQNWCWQWGLQKAGEQLLKTILTRLRQHKLPASTADMAAAHLHAMALAQLRGHTLPLRTDWLDAIAGSLIKEALNAPLPWSYRGVIHPDTDPILLTLIDTLAGDGFGKLAPSTPQPPLPKDVTCELERTAISLPAELTLNRFTPDGLAQSQVLHRLAILEIPGIVRQQGSTLTLAGNGEERWKLTRPLSQHAALIEAACFGATLQEAARNKLEADMLDAGGIGSITTCLSQAALAGLASFSQQLLEQLTLLIAQENQFAEMGQALEVLYALWRLDEISGMQGAQILQTTLCATIDRTLWLCESNGRPDEKEFHAHLHSWQALCHILRDLHSGVNLPGVSLSAAVALLERRSQAIHAPALDRGAALGALMRLEHPNASAEAALTMLAQLSPAQSGEALHGLLALARHQLACQPAFIAGFSSHLNQLSEADFINALPDLRAAMAWLPPRERGTLAHQVLEHYQLAQLPVSALQMPLHCPPQAIAHHQQLEQQALASLQNWGVFHV | not soluble
5 | MAHHHHHHMVLLPFPPSFYVTTGTTIPFISSPPVAQSGNIYASNESKRLRVDNFFMGFQYSFVADGKLGRGFVFESIEPITTTTASGNNNNNNNNNNNNNNSSEKKSGRGGEERISCRSFALNRGLTGFGVPDEFVRHAESSLVRGVKVWRYTGYSRSGVGPLQEVDYFIRNGTFHAVPWRVQIRRRQTALKELTGSPMTLPNWRYFGGLFFDEVAVPEGPYEDKLERLMQDTTVTLDFYNFVPAEPHPSVFSVPDNCKEVSARFTGNDVDISLAQRFLVDLSLYTPVGREMLREELNSA | not soluble
6 | ESSRSAMMYIQELRSGLRDMHLLSCLESLRVSLNNNPVSWVQTFGAEGLASLLDILKRLHDEKEETSGNYDSRNQHEIIRCLKAFMNNKFGIKTMLETEEGILLLVRAMDPAVPNMMIDAAKLLSALCILPQPEDMNERVLEAMTERAEMDEVERFQPLLDGLKSGTSIALKVGCLQLINALITPAEELDFRVHIRSELMRLGLHQVLQELREIENEDMKVQLCVFDEQGDEDFFDLKGRLDDIRMEMDDFGEVFQIILNTVKDSKAEPHFLSILQHLLLVRNDYEARPQYYKLIEECVSQIVLHKNGTDPDFKCRHLQIDIERLVDQMIDKTKVEKSEAKATELEKKLDSELTARHELQVEMKKMENDFEQKLQDLQGEKDALDS | soluble
7 | MSDAFLSSIKNRRTIYALDKQLPVSQEKIVELVKEAVSHSPSAFNSQSSRVVVLFGAEHEQFWNIAKDELKKIVPADAFAATETKLNSFAAGAGTVLFFEDQTVVRQLQEQFALYADNFPVWSEQASGMAQFAVWTALAEHKVGASLQHYNPLVDAQTHKTWNLPESWKLRAQMPFGAIAAPAGEKAFIAESERFKVFGN | not soluble
8 | MGSDKIHHHHHHMQSNRLTESSAEIHDMSLRIYQTPVQHLPEDLYVPPQAFAIWLEQFAGPLDFLLYLVKKNNVDLTRMPILPITEQYLAYISKLDTNHFELAGDYLLMASTLIAIKTELLLPMPEMPTDERDPKAELIERLEEYTQVKAASQRLDNLIRLERDVFLAMVSMPNQDIMNSELPSYSPTLLIDSLFKMQLQPDYQMHSIKVDAVPLADRIASISRQLSTDGARSFHELLDKAQGKIGVVVSFVAVLELIKRQLIGVVANNVDSGVSTATNADGSLSTHSDLLEKLTLEWLA | not soluble
9 | MKNIKDEWVQIALDLTSGLSSKDRFERLLSTIRNALKCDASALLLFKNQYFSPLATNGLDGDVIGRRFAISQHPRLEAIARAGDIVRFPSDSDLPDPYDGLIANEERQLQVHSCIGLPLLVNERLIGAVTIDAFDPTQFDSFTNKELRIISALAATSLHTALLMERLENQS | not soluble
10 | MSFRPEYKEYFKQGATARIYNGAFEDAGFYDEVDIKEFEYSREEKTFYYPCPCGDRFEISLEDLRNGEVVARCPSCSLIVCTVYEAEDLEKYL | not soluble
11 | VTLSLTKDNFDDVVNNADIILVEFYAPWCGHCKKLAPEYEKAAKELSKRSPPIPLAKVDATEQTDLAKRFDVSGYPTLKIFRKGRPFDYNGPREKYGIVDYMIEQSG | soluble
12 | MSLESLAAKVVERLNRAESAAELRFCHDELARELRRCLAPEQMKQLAGDVVCVHEAILRRAFFLAERETMKRSVGIRPPAWCWYVMGSIGRCEPTIWTDQDHGILFNCPEEEEAACYEFIRHMAAVGVDMLHEAGYPYCSGYVMATNKRWAQSVRGWEQQLSSYLDSGWPNDIRFLLIAMDMRPLYGEAELAEKARKALFAAVAKRPPLLARMGEHVQFPPVPLGWLGNVQTERWGPYSGAVHMKQSGYVQLTNALKWLACFAHVPTAGTAERRRALEANGVLTAPLSDAVCEALSVYYSIRLKYSTEAGDGREYVLWRALERTEQKQLKQAMRTAKRLQRFVARRVANIHAEGHHHHHH | soluble
13 | MSLKIKEITIWKEDLALTRPYTIAYETISAVENVFVLLETDNGITGIGAGSPAEDVTGETITATETALSLKLAPILQGKDIRSCFSLLKELNTALADTPAALAAADIALHDLAAKTMGLPLVDLLGRVHDRLPTSITIGIMPVKETLAEAEEYLGRGFSILKIKTGLNVEEDIERIIRLNETFKSKICMRVDANQGYEVEELHHFFKKTVGLVEFIEQPLKAEHLEKMGQLPQAIRRVSAADETLLGPRDAAQMLHAPRPFGIFNIKLMKCGGIAPGLEIANMAGHADIDLMWGCMDESIVSIAGALHAAFSSRATRYLDLDGSLDLARDIVNGGFILENGWMRTTDQPGLGVKRIEGHHHHHH | soluble
14 | MGYESMLADIKSSLNGKISDVEDKIEKLKKAKKDIDTLQEEAITEIKEIVKPELGKHWTGTKADDFDKGREEAKSEASKIVNDKYNEYMASINGKIFDLEWDKAKYASELFIANGAADLLKKGEEFAEEVGNTISKLKWWLEHHHHHH | soluble
15 | MSLNARSYLEQQLTGQNANAANALALAITQSQADKAMAETLINATFDQGYFHHIRWQGADGKVRVDRVNEAVFPAAPGWFRALLPLSPQPGSALVTAGWMQAGEIRVEAALGYAYESLWRGALQTMLWLLGTGLLAGLLGSIDIFKLRRDLQRVVNQARAISEHRFQRMTEPKVPELARVVGAMNQMVERLQSFLGEQSEEVEQLRRERHTDPVTGLPNREALEQAVSSTLAEEDDVRGCLLLLRLAGLAELNQRLGGERADALLVRLAADLEDLAARRKGWMAARLRGADFAVFCPELDMDGGRQLAETLCEQLALYRQMGLSDRDGIGHIGVCGIVQGDGLASLLARASQALAEAEAAGDNQWRVDDGAGPDVGSEWDWRELIEAACREHSEGHHHHHH | soluble
16 | MSASAFNFAFRRFWNSETGPKTVHFWAPTLKWGLVFAGLNDIKRPVEKVSGAQNLSLLATALIWTRWSFVIKPKNYLLASVNFFLGCTAGYHLTRIANFRIRNGDSFKQVIHYIIKGETPAAVAAKQTASTSMNKGVIGTNPPITH | soluble
17 | MKYGPSKDQIKQMAEEVREAAIRVKGEKELRMCPKTGHGSEWAGQLAVDANGAMNTYQPEGKYGDYGIGEDNRYLGTAKDWATLESGYQWIPGEFERYLMPEPHDFDALVDSAQKLTKDFVNVGQAKDPANVPAGTPTSVAPGTSAVDQPIRLSMGFTSDWSGHFADGFQRYLSEIPDVTRRQAVVAETLYEAAVAARDIYGAGREELGNIAKNAKLAIEGVEAGKSTGGCAGSSMATGFALIAAAATVAAGVSTLPISGPAVISGAMAAGNWTIVVGISSAIAAGSPLIPAPEKIELLASDVDGVIEKMKEALTKREKTVTDSEEAFAKKLGANSEMVEKNKVTGKDGGKSQDNAFFPRRPAMLDMSTDLKDLKDPATGFTHPVAAS | not soluble
18 | MTNKREDVRNIAIIAHVDHGKTTLVDELLKQSGIFRENEHVDERAMDSNDIERERGITILAKNTAVDYKGTRINILDTPGHADFGGEVERIMKMVDGVVLVVDAYEGTMPQTRFVLKKALEQNLKPVVVVNKIDKPSARPEGVVDEVLDLFIELEANDEQLEFPVVYASAVNGTASLDPEKQDDNLQSLYETIIDYVPAPIDNSDEPLQFQVALLDYNDYVGRIGIGRVFRGKMRVGDNVSLIKLDGTVKNFRVTKIFGYFGLKRLEIEEAQAGDLIAVSGMEDINVGETVTPHDHQEALPVLRIDEPTLEMTFKVNNSPFAGREGDFVTARQIQERLNQQLETDVSLKVSNTDSPDTWVVAGRGELHLSILIENMRREGYELQVSKPQVIIKEIDGVMCEPFERVQCEVPQENAGAVIESLGARKGEMVDMTTTDNGLTRLIFNVPARGMIGYTTEFMSMTRGYGIINHTFEEFRPRIKAQIGGRRNGALISMDQGSASTYAILGLEDRGVNFMEPGTEVYEGMIVGEHNRENDLTVNITKTKHQTNVRSATKDQTQTMNRPRILTLEEALQFINDDELVVVTPESIRLRKKILNKNVREKEAKRIKQMMQENE | not soluble
19 | MSTNALQPKTIGGNNNILEVIRLKRADLRKSDRKVAELVLADPKRVINATIAEAAEWAEVSQPTVIRFCASIGCQGYQDFKLRLAQSLALGMSATHSVIDADDTPAKVSEKIFDYTITSLDWVRNHLDPVQVDRAVDALAKANRIEFFGFGASGIVARDAQQKFPLFGVPCGAETDAHQQIMVVSMLKPGDVAVVISNTGATLAIIETARRARESGCQVIGIVGSDGPLVEFCDIVLMVETLENTNIYTPTISRIAALTVVDILSTSVALRRGAEHVDLFTGMKRNLRYLRTSTET | not soluble
